Target: α-synuclein (α-syn) (UniProt P37840)
Test: self-assembly into fibrils: ThT, monomer filtration, TEM
Details: reference: unphosphorylated WT α-syn (semisynthetic and recombinant); sites Y125

Substance: α-synuclein (α-syn) (from UniProt P37840) semisynthetic pY125 α-syn
- binding against the reference: same
